Experimental data from US12162918B2, “Periostin compounds for the treatment of haematological complications” (Chemotherapeutisches Forschungsinstitut Georg-Speyer-Haus, priority 2018, dated 2024).
“Also recorded” adds a separate entry of the source.

Columns and labels:
[1] = test system: Lin− cells; assay: Plating of warfarin-exposed Lin− cells on untreated versus warfarin-treated stroma, with or without MK-2206; format: cell-based, mice; details: MK-2206 5 μM added to cocultures, P=0.02
[2] = target: T1, integrin β3 (Mus musculus, UniProt O54890+P43406); assay: Inhibition of integrin β3 by cilengitide, pAKT in Lin− cells cocultured on BM stroma; format: cell-based, mice; details: cilengitide 0.05 μM, coculture on BM stroma cells, P=0.03
T1 construct: endogenous in cells; host or cells: murine Lin− bone marrow cells cocultured on murine BM stroma cells
T1 sequence (O54890 26-787): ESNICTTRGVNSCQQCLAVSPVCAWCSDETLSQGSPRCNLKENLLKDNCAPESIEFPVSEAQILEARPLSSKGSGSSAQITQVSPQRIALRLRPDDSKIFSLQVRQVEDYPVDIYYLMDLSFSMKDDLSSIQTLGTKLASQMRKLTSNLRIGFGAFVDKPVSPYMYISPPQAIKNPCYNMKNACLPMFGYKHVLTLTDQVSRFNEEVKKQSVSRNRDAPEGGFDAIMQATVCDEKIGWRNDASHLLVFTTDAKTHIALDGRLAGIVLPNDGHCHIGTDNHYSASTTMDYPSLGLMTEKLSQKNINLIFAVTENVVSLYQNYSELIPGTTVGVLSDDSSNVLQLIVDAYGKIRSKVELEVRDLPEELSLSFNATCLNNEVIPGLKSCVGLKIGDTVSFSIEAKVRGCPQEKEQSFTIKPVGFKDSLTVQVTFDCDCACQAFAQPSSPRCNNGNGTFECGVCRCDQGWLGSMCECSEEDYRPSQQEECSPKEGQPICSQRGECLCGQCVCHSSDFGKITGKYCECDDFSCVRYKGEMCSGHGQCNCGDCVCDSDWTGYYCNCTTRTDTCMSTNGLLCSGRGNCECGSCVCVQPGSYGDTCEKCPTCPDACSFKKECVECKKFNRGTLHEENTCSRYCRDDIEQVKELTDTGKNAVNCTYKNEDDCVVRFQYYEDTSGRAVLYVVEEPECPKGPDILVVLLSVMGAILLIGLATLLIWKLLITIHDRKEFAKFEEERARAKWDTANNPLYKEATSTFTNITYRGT
T1 sequence (P43406 31-885 limits assumed): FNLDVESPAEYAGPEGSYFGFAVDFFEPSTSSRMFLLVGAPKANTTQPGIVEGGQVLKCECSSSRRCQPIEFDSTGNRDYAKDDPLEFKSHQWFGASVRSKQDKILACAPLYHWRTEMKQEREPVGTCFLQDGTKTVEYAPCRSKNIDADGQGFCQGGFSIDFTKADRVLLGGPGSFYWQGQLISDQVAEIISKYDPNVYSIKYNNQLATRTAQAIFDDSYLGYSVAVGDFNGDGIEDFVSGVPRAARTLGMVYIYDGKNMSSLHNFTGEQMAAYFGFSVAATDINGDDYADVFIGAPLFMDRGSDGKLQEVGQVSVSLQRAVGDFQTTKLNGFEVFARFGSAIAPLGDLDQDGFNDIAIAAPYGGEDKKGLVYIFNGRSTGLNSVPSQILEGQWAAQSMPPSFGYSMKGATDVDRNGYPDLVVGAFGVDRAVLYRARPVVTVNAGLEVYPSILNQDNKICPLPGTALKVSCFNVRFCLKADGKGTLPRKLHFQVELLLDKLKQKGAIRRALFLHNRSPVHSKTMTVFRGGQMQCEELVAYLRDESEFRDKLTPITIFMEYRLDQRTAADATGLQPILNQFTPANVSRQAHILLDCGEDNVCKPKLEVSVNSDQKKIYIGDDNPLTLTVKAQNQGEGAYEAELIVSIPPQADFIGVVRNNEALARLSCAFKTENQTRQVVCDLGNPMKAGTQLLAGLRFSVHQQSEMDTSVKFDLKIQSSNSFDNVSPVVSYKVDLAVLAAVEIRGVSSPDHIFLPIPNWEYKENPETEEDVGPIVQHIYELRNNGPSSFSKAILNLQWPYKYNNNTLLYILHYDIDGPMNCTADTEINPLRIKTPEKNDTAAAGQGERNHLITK
T1 sequence (P43406 887-1044 partner limits assumed): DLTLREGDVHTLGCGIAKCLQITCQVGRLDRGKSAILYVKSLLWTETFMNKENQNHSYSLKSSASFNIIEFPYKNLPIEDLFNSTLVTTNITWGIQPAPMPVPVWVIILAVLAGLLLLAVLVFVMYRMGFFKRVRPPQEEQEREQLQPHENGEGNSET
Protocol: (§1) Concentrations of drugs for in vitro use were 2 μM for warfarin, 2 μg/ml for periostin, 5 μM for the AKT inhibitor MK-2206 (Selleck Chemicals, Houston, TX) and cilengitide (Selleck Chemicals, Houston, TX, Cat. No. #S7077) was used at 0.05 μM. Phosphate buffered saline served as the vehicle control.
The PE-labelled anti-pAKT antibody (Cell signaling, #5315, Danvers, MA) was used for intracellular flow cytometry after fixation and permeabilization of the cells.

[3] = test system: patients; assay: Peripheral blood counts of patients on VKA versus control patients; format: in vivo, human
Text: For FIGS. 6C-6H: Data of patients on VKA were obtained from the French health care databases. Patients with hematological disease, inflammation or sepsis were excluded. Patients admitted to the hospital for dermatological problems without hematological disease or sepsis acted as controls.

[4] = test system: wildtype mice; assay: Complete blood count and flow cytometry of peripheral blood and bone marrow of treated mice; format: in vivo; details: administration of vitamin K1, P=0.04
Protocol: (§2) 0.5 mg/kg/d or 0.05 mg/kg/d of warfarin, resuspended in phosphate-buffered saline was administered to mice via subcutaneously implanted osmotic minipumps (ALZET minipumps, Cupertino, CA). The osmotic minipumps were changed after 14 days (if the experiment went beyond 14 days of treatment). Sham operated (skin incision and suture) mice served as controls. Warfarin treatment continued for 10-14 days. In the xenotransplantation experiments the mice were treated with warfarin via the drinking water (or normal drinking water) at a dose of 0.72 mg/100 ml for a total of 3 days a week (Pfeilschifter et al., 2011).
(§3) 5-fluorouracil was intraperitoneally injected every week at a dose of 75 mg/kg for a total of 4 doses or as a one time dose of 200 mg/kg. Recombinant mouse periostin (R&D Systems, Minneapolis, MN, cat. no. 2955-F2), produced in the Sf21 (baculovirus)-derived insect cell line, was administered intravenously at a dose of 2-4 μg per day and vitamin K was given at a dose of 15 mg/kg by oral gavage for four consecutive days.
We assessed the complete blood count of vehicle or warfarin-treated mice using a complete blood count analyzer (Scil Vet ABC, Gurnee, IL). Peripheral blood and bone marrow samples were stained with antibodies for flow cytometry, which was performed on a BD LSR Fortessa (BD Biosciences, Heidelberg, Germany). The lineage antibody cocktail contained antibodies to B220, CD5, Ter119, F4/80 and CD11b. Engraftment of human cells in NSG mice was assessed using anti-human CD45 (BD Biosciences, San José, CA).

[5] = test system: HSC; assay: Competitive transplantation of bone marrow from periostin- or vitamin K-treated donor mice; format: in vivo; details: for percentage of LKS cells, cell cycle of transplanted LKS cells, number of colonies in methylcellulose: previously treated bone marrow cells compared to vehicle
Protocol: as §3
SJL (CD45.1) donor mice were treated with vehicle or warfarin, euthanized and long bones were flushed, followed by RBC lysis (Life Technologies, Darmstadt, Germany). For competitive transplantation 2×10^6 total BM cells from SJL mice were co-transplanted with 1×10^6 CD45.2+ BM competitor cells into lethally irradiated (900 cGy) C57BL/6N (CD45.2+) recipient mice. For serial transplantation 2×10^6 total CD45.1+ BM cells were transplanted into lethally irradiated C57BL/6N recipient mice. Cell engraftment and chimerism were assessed by flow cytometry of peripheral blood leukocytes for CD45.1 and CD45.2 after 4, 8, 12 and 16 weeks post transplantation. In the limiting dilution experiment we treated primary CD45.1+ donor mice with vehicle or warfarin for 14 days and, consequently, transplanted 5×10^5, 12.5×10^4, 6×10^4 and 1.5×10^4 pooled BM cells into 5 CD45.2+ recipients per group adding 5×10^5 CD45.2+ supporter cells. In indicated experiments we transplanted 5,000 or 10,000 sorted CD45.1+ LKS cells from mice treated with vehicle or warfarin plus 1×10^6 CD45.2+ total BM supporter cells into CD45.2+ recipient mice.

[6] = test system: hematopoietic cells from murine bone marrow; assay: In vitro rescue experiment with periostin in stroma/Lin− cocultures; format: cell-based; details: for absolute number of hematopoietic cells in coculture: 2 μg/ml periostin added, warfarin-treated stroma, 5 days, P=0.02
Protocol: as §1
To test the direct effect of warfarin on hematopoietic cells 100,000 Lin− cells were cultured in 2 μM vehicle or warfarin in the absence of stroma cells for a total of 7 days. For the in vitro rescue experiment with periostin stroma cells were grown in warfarin for 14 days, before vehicle or periostin were added.

[7] = test system: LKS cells and myeloid cells; assay: In vivo administration of periostin to mice treated with warfarin
Protocol: as §2, §3
For cell cycle analysis cells were permeabilized and fixed with the cytoperm/cytofix kit (BD Biosciences, San Jose, CA), followed by staining with an antibody to Ki67-PE (Biolegend, San Diego, CA) overnight at 4 C. Consequently, cells were washed and resuspended in PBS with DAPI (1 ng/ml). For detection of apoptosis cells were first stained for surface markers, washed with Annexin V buffer (Life Technologies, Darmstadt, Germany), stained with Annexin V-PE (Life Technologies, Darmstadt, Germany), washed with Annexin V binding buffer, resuspended in PBS with DAPI and analyzed.

[8] = test system: Lin− cells; assay: Adhesion assay of Lin− cells to stroma cells; format: cell-based, mice; details: periostin added, warfarin- and more prominently vehicle-treated conditions, P=0.03
Text: In vivo administration of periostin to mice treated with warfarin also ‘rescued’ the number of LKS cells positive for integrin β3, whose binding to its ligand periostin (Gillan et al., 2002) is known to mediate HSC support (P=0.0013; FIG. 5A) (Khurana and Verfaillie, 2013). […] In order to test, whether the periostin/integrin β3-axis mediates the adhesion of HSPC to stroma, the inventors performed an adhesion assay plating untreated Lin− cells on vehicle- or warfarin-treated stroma cells in the presence or absence of periostin. […] Due to the role of pAKT, which lies downstream of integrin β3 (Hynes, 2002), in periostin-mediated cell survival (Bao et al., 2004) the inventors tested the effect of inhibition of integrin β3 by cilengitide on pAKT in Lin− cells after coculture on BM stroma cells. Similar to the reduction of pAKT+ Lin− cells in mice treated with warfarin (FIG. 3A), inhibition of integrin β3 led to a decrease of pAKT in Lin− cells (P=0.03).
as §1

Molecule: NC1(c2ccc(-c3nc4ccn5c(=O)[nH]nc5c4cc3-c3ccccc3)cc2)CCC1 [MK-2206]
- temporary recovery of warfarin-exposed Lin− cells on untreated stroma [1]: prevented

Molecule: CC(C)[C@H]1C(=O)N[C@@H](CCCN=C(N)N)C(=O)NCC(=O)N[C@@H](CC(=O)O)C(=O)N[C@H](Cc2ccccc2)C(=O)N1C [cilengitide]
- pAKT in Lin− cells [2]: decrease

Molecule: O=C1c2ccccc2C(=O)C1c1ccc(F)cc1 [fluindione]
- absolute number of leukocytes ([3]; 282 patients on warfarin (P=0.0007) or 89 on fluindione (P=0.029) vs 145 control patients): reduced
- absolute number of monocytes ([3]; 282 patients on warfarin (P=0.004) or 89 on fluindione (P=0.046) vs 145 control patients): reduced
- platelets ([3]; warfarin- or fluindione-treated patients): not reduced

Molecule: CC1=C(C/C=C(\C)CCC[C@H](C)CCC[C@H](C)CCCC(C)C)C(=O)c2ccccc2C1=O [vitamin K1]
- decreased percentage of myeloid cells in previously warfarin-treated mice [4]: rescued
- percentage of LKS cells, cell cycle of transplanted LKS cells, number of colonies in methylcellulose [5]: did not lead to an increase
- engraftment of donor cells ([5]; treatment of donor mice with vitamin K prior to competitive transplantation): did not lead to increased engraftment

B1: periostin: Recombinant mouse periostin (R&D Systems, cat. no. 2955-F2), produced in the Sf21 (baculovirus)-derived insect cell line (protein)
chain: NSYYDKVLAHSRIRGRDQGPNVCALQQILGTKKKYFSSCKNWYQGAICGKKTTVLYECCPGYMRMEGMKGCPAVMPIDHVYGTLGIVGATTTQHYSDVSKLREEIEGKGSYTYFAPSNEAWENLDSDIRRGLENNVNVELLNALHSHMVNKRMLTKDLKHGMVIPSMYNNLGLFINHYPNGVVTVNCARVIHGNQIATNGVVHVIDRVLTQIGTSIQDFLEAEDDLSSFRAAAITSDLLESLGRDGHFTLFAPTNEAFEKLPRGVLERIMGDKVASEALMKYHILNTLQCSEAITGGAVFETMEGNTIEIGCEGDSISINGIKMVNKKDIVTKNGVIHLIDEVLIPDSAKQVIELAGKQQTTFTDLVAQLGLASSLKPDGEYTLLAPVNNAFSDDTLSMDQRLLKLILQNHILKVKVGLSDLYNGQILETIGGKQLRVFVYRTAICIENSCMVRGSKQGRNGAIHIFREIIQPAEKSLHDKLRQDKRFSIFLSLLEAADLKDLLTQPGDWTLFAPTNDAFKGMTSEERELLIGDKNALQNIILYHLTPGVYIGKGFEPGVTNILKTTQGSKIYLKGVNETLLVNELKSKESDIMTTNGVIHVVDKLLYPADIPVGNDQLLELLNKLIKYIQIKFVRGSTFKEIPMTVYRPAMTKIQIEGDPDFRLIKEGETVTEVIHGEPVIKKYTKIIDGVPVEITEKQTREERIITGPEIKYTRISTGGGETGETLQKFLQKEVSKVTKFIEGGDGHLFEDEEIKRLLQGDTPAKKIPANKRVQGPRRRSREGRSQ
- absolute number of hematopoietic cells in coculture [6]: increase of the number of hematopoietic cells
- absolute number of hematopoietic cells in coculture ([6]; listed as recombinant periostin): restored
- percentage of LKS cells in warfarin-treated cultures ([6]; periostin added, P=0.056): strong trend towards restoration
- engraftment of CD45.1+ bone marrow (ratio CD45.1/CD45.2) ([5]; donor treated for four days, four weeks after transplantation, P=0.02): increased engraftment
- engraftment of CD45.1+ bone marrow ([5]; later time points (data not shown)): not at later time points
- percentage of LKS cells, cell cycle of transplanted LKS cells, number of colonies in methylcellulose [5]: did not lead to an increase
- annexin V+ apoptotic LKS cells ([7]; periostin and warfarin (or vehicle) vs warfarin (or vehicle) alone, P=0.02): significantly reduced
- median fluorescence intensity of integrin β3 on LKS cells ([7]; periostin to warfarin-treated mice): remained unchanged
- percentage of myeloid cells in peripheral blood ([7]; periostin to warfarin-treated mice, 4 day treatment, P=0.007): rescued; also recorded: increase of the percentage of myeloid cells
- number of LKS cells positive for integrin β3 ([7]; periostin to warfarin-treated mice, P=0.0013): rescued
- adhesion of Lin− cells to stroma [8]: restored or augmented
